Experimental data taken from patent publication US6903077, “Methods and products for delivering nucleic acids” (University of Vermont and State Agricultural College).

Experiments:
GST-Z1 = system: T1, GST-Z1
T1 sequence: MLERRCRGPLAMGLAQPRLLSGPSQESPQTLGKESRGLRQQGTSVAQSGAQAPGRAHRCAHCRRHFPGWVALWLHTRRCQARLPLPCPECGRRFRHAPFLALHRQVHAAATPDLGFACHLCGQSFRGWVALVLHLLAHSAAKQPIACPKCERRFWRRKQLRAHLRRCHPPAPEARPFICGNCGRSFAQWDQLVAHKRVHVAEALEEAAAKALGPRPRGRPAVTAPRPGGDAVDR

GST-Z2-P123 [1] = system: T2, GST-Z2-P123
T2 sequence: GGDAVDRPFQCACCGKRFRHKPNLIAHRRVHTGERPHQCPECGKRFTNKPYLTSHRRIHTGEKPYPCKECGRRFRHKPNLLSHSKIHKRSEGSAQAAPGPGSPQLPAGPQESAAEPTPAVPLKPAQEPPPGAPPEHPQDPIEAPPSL

GST-Z2 = system: T3, GST-Z2
T3 sequence: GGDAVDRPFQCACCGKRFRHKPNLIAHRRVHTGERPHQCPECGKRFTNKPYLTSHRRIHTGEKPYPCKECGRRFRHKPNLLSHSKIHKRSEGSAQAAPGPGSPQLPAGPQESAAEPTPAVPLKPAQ

GST-Z3 = system: T4, GST-Z3
T4 sequence: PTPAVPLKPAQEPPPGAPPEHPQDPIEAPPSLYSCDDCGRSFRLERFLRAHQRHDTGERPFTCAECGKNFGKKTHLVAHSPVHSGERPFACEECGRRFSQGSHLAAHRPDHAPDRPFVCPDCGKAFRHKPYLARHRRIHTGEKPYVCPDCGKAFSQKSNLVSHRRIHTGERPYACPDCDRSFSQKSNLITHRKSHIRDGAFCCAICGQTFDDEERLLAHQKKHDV

GST-Z2-P123 [2] = target: T5, GST-Z2-P123 (Homo sapiens, UniProt Q9BWE0 SEQ:1-147); assay: EMSA; multimers; details: tags: GST N-terminal; label: 32P; 5' overhangs
T5 sequence: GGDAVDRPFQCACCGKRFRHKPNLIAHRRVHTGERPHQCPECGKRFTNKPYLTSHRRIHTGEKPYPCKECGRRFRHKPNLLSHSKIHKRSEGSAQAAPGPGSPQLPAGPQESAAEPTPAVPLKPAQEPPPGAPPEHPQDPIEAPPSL

GST-Z2-P1 = target: T6, GST-Z2-P1 (Homo sapiens, UniProt Q9BWE0 SEQ:225-337); assay: EMSA; no multimers; details: tags: GST N-terminal; label: 32P; 5' overhangs
T6 sequence: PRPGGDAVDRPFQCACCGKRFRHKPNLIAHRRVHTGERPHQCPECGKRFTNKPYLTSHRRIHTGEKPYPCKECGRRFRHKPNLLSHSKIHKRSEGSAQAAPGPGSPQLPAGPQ

[3] = target: T7, GST-Z2 (RIP60 zinc fingers 6-8 plus part of PRR, GST-Z2-P12) (Homo sapiens, UniProt Q9BWE0 SEQ:1-126); assay: EMSA; competed by 100-fold DSR; more stable than GST-Z1; details: tags: GST N-terminal; label: 32P; 5' overhangs
T7 sequence: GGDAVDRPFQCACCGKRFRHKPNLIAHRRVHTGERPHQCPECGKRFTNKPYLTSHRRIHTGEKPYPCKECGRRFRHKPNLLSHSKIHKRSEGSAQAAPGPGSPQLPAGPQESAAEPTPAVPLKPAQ
Experimental: (§1) A value for % probe bound was calculated as a ratio of protein-bound probe to total probe (bound and unbound probe) per sample and values were plotted against time.
(§2) Binding of the GST-Z2 to the DSR probe was stable in the presence of 1000-fold excess of IBF, SV-AT, or Py-AT competitors, but was competed with 100-fold excess of unlabeled DSR DNA. […] In contrast, binding of GST-Z3 to the DSR probe was eliminated by a 1000-fold excess of all unlabelled competitors tested. […] In a like manner, the USR was also able to compete for binding of these proteins to the DSR.
(§3) To ascertain if Z1 and Z2 show any differences in binding activity, the stability of Z1 and Z2 complexes with the DSR was examined in competition gel shift assays. Identical amounts of GST-Z1 and GST-Z2 were incubated with ^32P-labeled probe for 20 min, and then a 1000-fold molar excess of unlabeled competitor DSR was added. Samples were removed from the binding reactions at various times thereafter and loaded directly onto non-denaturing gels running at low voltage. After all the samples were loaded, the voltage was increased to 100V for 1 hr. After drying the gels, the signals in the shifted complexes were quantified by phosphoimaging.

[4] = target: T8, GST-Z1 (RIP60 zinc fingers 1-5) (Homo sapiens, UniProt Q9BWE0 SEQ:1-234); assay: EMSA; competed by 100-fold DSR; less stable than GST-Z2; details: tags: GST N-terminal; label: 32P; 5' overhangs
T8 chain: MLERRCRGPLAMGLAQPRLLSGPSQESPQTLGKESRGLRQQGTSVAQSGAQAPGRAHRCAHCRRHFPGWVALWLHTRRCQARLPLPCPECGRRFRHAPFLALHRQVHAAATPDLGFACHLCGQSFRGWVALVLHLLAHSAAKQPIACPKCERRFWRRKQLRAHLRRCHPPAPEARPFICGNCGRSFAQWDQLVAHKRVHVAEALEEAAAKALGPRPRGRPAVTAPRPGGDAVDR
Experimental: as §1, §2, §3

GST-Z12 [5] = target: T9, GST-Z12 (Homo sapiens, UniProt Q9BWE0 SEQ:1-349); assay: EMSA; specific; details: tags: GST N-terminal; label: 32P; 5' overhangs
T9 chain: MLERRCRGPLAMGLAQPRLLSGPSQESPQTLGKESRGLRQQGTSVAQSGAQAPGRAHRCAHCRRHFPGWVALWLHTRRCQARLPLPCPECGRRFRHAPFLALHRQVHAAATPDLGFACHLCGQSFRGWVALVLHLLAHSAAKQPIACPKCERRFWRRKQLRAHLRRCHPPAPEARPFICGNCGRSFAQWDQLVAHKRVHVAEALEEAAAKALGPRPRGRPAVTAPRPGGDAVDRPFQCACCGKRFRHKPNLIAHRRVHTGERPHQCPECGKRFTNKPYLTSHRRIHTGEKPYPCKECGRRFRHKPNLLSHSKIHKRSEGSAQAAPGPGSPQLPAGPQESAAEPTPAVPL
Experimental: DSR (50 pmole) was labeled by Klenow fill-in reaction of 5' overhangs in the presence of [α-^32P]-dATP. Other probes were end-labeled with polynucleotide kinase and [γ-^32P]. Binding reactions (30 ul) contained 0.05 pmole labeled DSR probe, 40 mM KCl, 10 mM HEPES (pH 8.0), 4% Ficoll, 33 ng/ul poly dIdC, 1 mM DTT, 16.7 uM ZnCl_2, and 0.5–10 ug of protein. Binding reactions were incubated for 20 minutes at 37° C., 15 min on ice, and then resolved on 6% native polyacrylamide gels in 0.25×TBE buffer. Gels were dried, exposed to Kodak XAR film at −80° C., and signals were detected by autoradiography. Competition binding reactions were assembled as described above with the addition of 0.5, 5, or 50 pmole of unlabeled double-stranded competitor DNA to the reactions prior to the addition of protein. For time course competition assays, 60 ul binding reactions were assembled and incubated as above. […] Signals on the dried gels were quantified on a phosphoimager (BioRad model GS 525). A value for % probe bound was calculated as a ratio of protein-bound probe to total probe (bound and unbound probe) per sample and values were plotted against time. […]

[6] = target: the molecule itself; assay: Gel shift Multimers, self-association on DNA
Experimental: Binding reactions (30 ul) contained 0.05 pmole labeled DSR probe, 40 mM KCl, 10 mM HEPES (pH 8.0), 4% Ficoll, 33 ng/ul poly dIdC, 1 mM DTT, 16.7 uM ZnCl_2, and 0.5–10 ug of protein. Binding reactions were incubated for 20 minutes at 37° C., 15 min on ice, and then resolved on 6% native polyacrylamide gels in 0.25×TBE buffer. Gels were dried, exposed to Kodak XAR film at −80° C., and signals were detected by autoradiography. Competition binding reactions were assembled as described above with the addition of 0.5, 5, or 50 pmole of unlabeled double-stranded competitor DNA to the reactions prior to the addition of protein. For time course competition assays, 60 ul binding reactions were assembled and incubated as above. Following the incubation step on ice, 50 pmole of unlabeled DSR competitor DNA was added to the binding reactions and samples where removed at the indicated time points, loaded on a 6% native PAGE gel, and resolved by electrophoresis at 25V until all samples were loaded. After the final sample was loaded, the voltage was increased to 100V and samples were resolved by electrophoresis for an additional 1.5 hours. Signals on the dried gels were quantified on a phosphoimager (BioRad model GS 525). A value for % probe bound was calculated as a ratio of protein-bound probe to total probe (bound and unbound probe) per sample and values were plotted against time. […]

[7] = target: T7, GST-Z2 (RIP60 zinc fingers 6-8 plus …); assay: competition; no competition at 1000-fold excess; details: tags: GST N-terminal
Experimental: (§4) Binding reactions were incubated for 20 minutes at 37° C., 15 min on ice, and then resolved on 6% native polyacrylamide gels in 0.25×TBE buffer. Gels were dried, exposed to Kodak XAR film at −80° C., and signals were detected by autoradiography. Competition binding reactions were assembled as described above with the addition of 0.5, 5, or 50 pmole of unlabeled double-stranded competitor DNA to the reactions prior to the addition of protein. For time course competition assays, 60 ul binding reactions were assembled and incubated as above. Following the incubation step on ice, 50 pmole of unlabeled DSR competitor DNA was added to the binding reactions and samples where removed at the indicated time points, loaded on a 6% native PAGE gel, and resolved by electrophoresis at 25V until all samples were loaded. After the final sample was loaded, the voltage was increased to 100V and samples were resolved by electrophoresis for an additional 1.5 hours. Signals on the dried gels were quantified on a phosphoimager (BioRad model GS 525). A value for % probe bound was calculated as a ratio of protein-bound probe to total probe (bound and unbound probe) per sample and values were plotted against time.
(§5) Binding of the GST-Z2 to the DSR probe was stable in the presence of 1000-fold excess of IBF, SV-AT, or Py-AT competitors, but was competed with 100-fold excess of unlabeled DSR DNA. […]

[8] = target: T8, GST-Z1 (RIP60 zinc fingers 1-5); assay: competition; not significantly competing; details: tags: GST N-terminal
Experimental: as §4, §5

GST-Z12 [9] = target: T9, GST-Z12; assay: competition; USR competes; details: tags: GST N-terminal
Experimental: as §4, §5

[10] = target: T7, GST-Z2 (RIP60 zinc fingers 6-8 plus …); assay: competition; USR competes for binding to DSR; details: tags: GST N-terminal
Experimental: as §4, §5

[11] = target: T8, GST-Z1 (RIP60 zinc fingers 1-5); assay: EMSA; footprinting and gel shift; unstable binding; details: tags: GST N-terminal

casein kinase II was tested, and the “phosphorylation in vitro (32P-ATP, SDS gel, autoradiography)” value (GST-Z1) was “neither GST-Z1 nor GST-Z3 were phosphorylated to any great degree”, the “phosphorylation in vitro (32P-ATP, SDS gel, autoradiography)” value (GST-Z2-P123 [1]) was “Both GST-Z2 and GST-Z2P123 were phosphorylated” and the “phosphorylation in vitro (32P-ATP, SDS gel, autoradiography)” value (GST-Z2) was “Only the GST-Z2 polypeptide, which contains the casein kinase II phosphorylation domain was phosphorylated”. For the same molecule, the “phosphorylation in vitro with and without DNA” value (GST-Z2) was “GST-Z2 polypeptide was phosphorylated by casein kinase II in the absence of DNA. However, the extent of phosphorylation increased in the presence of the double stranded DRS oligo, the linearized plasmid pCH127 and the supercoiled pCH127” and the “phosphorylation in vitro (32P-ATP, SDS gel, autoradiography)” value (GST-Z3) was “neither GST-Z1 nor GST-Z3 were phosphorylated to any great degree”.

B1: DSR (OCH7/OCH8) (dsDNA)
DNA 1: GATCTTTTATTATTATTATTAGTTCG
DNA 2: GATCCGAACTAATAATAATAATAAAA
B1: binds (GST-Z2-P123 [2]); binds (GST-Z2-P1); binds [3]. B1: binds [4]; binds (GST-Z12 [5]).

B2: GST-Z2 (other)
chain: GGDAVDRPFQCACCGKRFRHKPNLIAHRRVHTGERPHQCPECGKRFTNKPYLTSHRRIHTGEKPYPCKECGRRFRHKPNLLSHSKIHKRSEGSAQAAPGPGSPQLPAGPQESAAEPTPAVPLKPAQ
notes: also called GST-Z2(P12); GST-Z2-P12; not shown: glutathione-S-transferase (GST) purification tag, 26 kD, encoded by pGEX-2T (Pharmacia Biotech), at the amino terminus
B2: binds [6].

B3: IBF (OCH13/OCH14) (dsDNA)
DNA 1: GATCCGGGAAGGCGGGCGCTGGGGGCGCTGCGGCGCTGCGCTCCACCT
DNA 2: GATCTAGGTGGAGCGCAGCGCCGCAGCGCCCCCAGCGCCCGCCTTCCCG
B3: no binding [7]; no binding [8].

B4: USR (OCH39/OCH40) (dsDNA)
DNA 1: GATCTTAACAGTAATAATAAATATCT
DNA 2: GATCAGATATTTATTATTACTGTTAA
B4: binds (GST-Z12 [9]); binds [10]; binds [11].

B5: Py-AT (OCH37/OCH38) (dsDNA)
DNA 1: CTGTTTTTTTTAGTATTAAGC
DNA 2: GCTTAATACTAAAAAAAACAG
B5: no binding [7].
